In EP4772193A1 (Teijin Pharma Limited, dated 2026):
Numbering of substitutions follows the chain as printed. Read-outs that look alike come from different tables or passages of the source.

B1: hGPN18-2_H2L3 (antibody, V domains shown)
VH: QVQLVQSGPGLVQPTQTLTLTCSFSGFSLSTSVMGVGWIRQPSGKGLEWLADIWWDDDKDYNPSLKSRLTISKDTSKNQVVLTMTNMDTVDTATYYCARTYYSNYEYYGMDYWGQGTLVTVSS
VL: DIVMTQSPDSLAVSLGERATINCRSSQTIILSNGNTYLEWYQQKPGQPPKLLIYKVSNRFSGVPDRFSGSGSGTDFTLTISSLQAEDVAVYYCFQGSHVPFTFGSGTKLEIKR
notes: humanized; also called humanized anti-gpNMB antibody H2L3
B2: hGPN18-2_H0L0 (antibody, V domains shown)
VH: QVTLKESGPGILQPSQTLSLTCSFSGFSLSTSVMGVGWIRQPSGKGLEWLADIWWDDDKDYNPSLKSRLTISKDTSKNQVFLKIASVDTADTATYYCARTYYSNYEYYGMDYWGQGTSVTVSS
VL: DVLMTQTPLSLPVSLGDQASISCRSSQTIILSNGNTYLEWYLQKPGQSPKLLIYKVSNRFSGVPDRFSGSGSGTDFTLKISRVEAEDLGVYYCFQGSHVPFTFGSGTKLEIK
notes: human chimeric antibody: mouse GPN18-2 variable regions; also called human chimeric antibody of GPN18-2
B3: hGPN06-1_H0L0 (antibody, V domains shown)
VH: QVQLQQPGAEIVRPGASVKLSCKASGYTFTDNWMGWVKQRPGQGLEWIGAIDPSDSFTNYNQNFKGKATLTVDTSSSTAYMQLSSLTSEDSAVYFCTRSGYYGSPKLGGDYWGQGTTLTVSS
VL: QIVLTQSPAIMSASLGEEITLTCSASSSISYMHWYQQKSGTSPKLLIYSTSNLASGVPSRFSGSGSGTFYSLTISSVEAEDAADYYCHQWNSYPCTFGGGTKLEIK
notes: human chimeric antibody: mouse GPN06-1 variable regions (VH0, VL0); also called human chimeric antibody of GPN06-1
B4: hGPN18-5_H0L0 (antibody, V domains shown)
VH: QVQLQQSGAELAKPGTSVKMSCKASGYTFTTYWMNWVKQRPGQDLEWIGAINPSNDYTEYNQKFKDKAILTADKSSNTAYMQLSSLTSEDSAVYYCGRSYSPDYWGQGTTLTVSS
VL: DIVMTQSQKFMSTSVGDRVSVTCKASQNVDNHVAWHQQKPGQSPKALIYSASYRYSGVPDRFTGSGSGTDFTLTIRDVQSEDLADYFCQQYKSYPFTFGSGTELEIK
notes: chimeric antibody with mouse GPN18-5 variable regions (VH0, VL0); also called hGPN18-5_VH0+VL0; HGPN18-5_VH0+VL0
B5: hGPN18-5_H3L1 (antibody, V domains shown)
VH: QVQLVQSGAEVKKPGASVKVSCKASGYTFTTYWMNWVRQAPGQGLEWIGAINPSNDYTEYNQKFKDRAIMTADKSTSTVYMELSSLRSEDTAVYYCGRSYSPDYWGQGTTVTVSS
VL: DIQMTQSPSSLSASVGDRVTITCKASQNVDNHVAWFQQKPGKAPKALIYSASYRYSGVPSRFSGSGSGTDFTLTISSLQPEDFATYFCQQYKSYPFTFGGGTKLEIK
notes: humanized; also called hGPN18-5 VH3+VL1
B6: hGPN18-5_H1L1 (antibody, V domains shown)
VH: B5 VH with A68V, I69T, K74T
VL: B5 VL
notes: humanized; also called hGPN18-5_VH1+VL1
B7: hGPN18-5_H3L3 (antibody, V domains shown)
VH: B5 VH
VL: B5 VL with F36H, S60D, S63T, T85D
notes: humanized; also called hGPN18-5_VH3+VL3
B8: hGPN06-1_H1L1 (antibody, V domains shown)
VH: QVQLVQSGAEVKKPGASVKVSCKASGYTFTDNWMGWVKQRPGQGLEWIGAIDPSDSFTNYNQNFKGRVTMTVDTSISTAYMELSRLRSDDSAVYFCTRSGYYGSPKLGGDYWGQGTLVTVSS
VL: EIVLTQSPSSLSASVGDRVTITCSASSSISYMHWYQQKSGTAPKLLIYSTSNLASGVPSRFSGSGSGTDFTFTISSLQPEDAATYYCHQWNSYPCTFGGGTKLEIK
notes: humanized; also called humanized anti-gpNMB antibody H1L1

Tests used:
[1] = biological target: T1, recombinant human soluble gpNMB (recombinant human gpNMB-FLAG-His) (human, UniProt Q14956 23-498); experiment: antigen ELISA, vs hGPN18-2_H2L3
T1 sequence: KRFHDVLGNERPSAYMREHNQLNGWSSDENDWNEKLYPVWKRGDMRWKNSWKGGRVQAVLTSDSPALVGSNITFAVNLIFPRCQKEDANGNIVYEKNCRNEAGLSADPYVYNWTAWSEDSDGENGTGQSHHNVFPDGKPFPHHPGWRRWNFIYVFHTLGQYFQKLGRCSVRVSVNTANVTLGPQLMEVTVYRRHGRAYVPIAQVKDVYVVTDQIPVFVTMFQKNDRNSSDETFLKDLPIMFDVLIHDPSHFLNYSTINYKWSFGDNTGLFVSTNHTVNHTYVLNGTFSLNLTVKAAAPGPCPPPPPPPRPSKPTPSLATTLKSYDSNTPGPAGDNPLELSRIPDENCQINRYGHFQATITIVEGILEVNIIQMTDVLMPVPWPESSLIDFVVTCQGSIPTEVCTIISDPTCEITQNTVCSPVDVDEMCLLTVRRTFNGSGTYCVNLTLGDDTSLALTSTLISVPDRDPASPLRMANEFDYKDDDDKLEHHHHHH

[2] = biological target: T1, recombinant human soluble gpNMB …; experiment: antigen ELISA, vs hGPN18-2_H2L3; remark: listed apart in the source
[3] = biological target: T1, recombinant human soluble gpNMB …; experiment: antigen ELISA, vs hGPN18-2_H2L3; remark: listed apart in the source
[4] = biological target: T1, recombinant human soluble gpNMB …; experiment: antigen ELISA
[5] = biological target: T1, recombinant human soluble gpNMB …; experiment: antigen ELISA; remark: listed apart in the source
[6] = biological target: T1, recombinant human soluble gpNMB …; experiment: antigen ELISA; remark: listed apart in the source
[7] = biological target: T1, recombinant human soluble gpNMB …; experiment: antigen ELISA; remark: listed apart in the source
[8] = biological target: T1, recombinant human soluble gpNMB …; experiment: SPR, antibody 100 nM over captured gpNMB-FLAG-His, 36C
[9] = biological target: T1, recombinant human soluble gpNMB …; experiment: antigen ELISA; remark: listed apart in the source
[10] = biological target: T1, recombinant human soluble gpNMB …; experiment: SPR, antibody over captured gpNMB-FLAG-His, 1:1 model
[11] = biological target: T1, recombinant human soluble gpNMB …; experiment: SPR single-cycle kinetics, antibody over captured gpNMB-FLAG-His, 36C, mean of 2
[12] = biological target: T2, recombinant mouse soluble gpNMB (recombinant mouse gpNMB-FLAG-His) (mouse, UniProt Q99P91 23-502); experiment: as above
T2 sequence: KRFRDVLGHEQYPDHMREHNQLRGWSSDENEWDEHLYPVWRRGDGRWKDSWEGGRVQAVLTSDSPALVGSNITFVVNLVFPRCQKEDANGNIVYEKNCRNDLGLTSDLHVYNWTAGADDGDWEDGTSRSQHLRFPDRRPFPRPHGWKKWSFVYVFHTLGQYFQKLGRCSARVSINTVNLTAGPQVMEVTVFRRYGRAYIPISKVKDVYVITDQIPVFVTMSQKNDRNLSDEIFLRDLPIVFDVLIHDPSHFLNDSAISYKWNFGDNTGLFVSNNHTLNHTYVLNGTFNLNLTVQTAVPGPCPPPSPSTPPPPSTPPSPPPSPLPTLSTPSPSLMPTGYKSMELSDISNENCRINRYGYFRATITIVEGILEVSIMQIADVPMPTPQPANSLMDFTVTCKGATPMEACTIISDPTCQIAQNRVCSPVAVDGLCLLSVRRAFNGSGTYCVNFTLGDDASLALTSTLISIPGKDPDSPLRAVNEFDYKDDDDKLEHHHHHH

[13] = biological target: T3, human gpNMB (Human Osteoactivin, His-tag, AcroBioSystems) (human, UniProt Q14956-2 23-486, limits assumed); experiment: SPR Biacore 8K, antibody captured on protein A, gpNMB as analyte
T3 sequence (looked up): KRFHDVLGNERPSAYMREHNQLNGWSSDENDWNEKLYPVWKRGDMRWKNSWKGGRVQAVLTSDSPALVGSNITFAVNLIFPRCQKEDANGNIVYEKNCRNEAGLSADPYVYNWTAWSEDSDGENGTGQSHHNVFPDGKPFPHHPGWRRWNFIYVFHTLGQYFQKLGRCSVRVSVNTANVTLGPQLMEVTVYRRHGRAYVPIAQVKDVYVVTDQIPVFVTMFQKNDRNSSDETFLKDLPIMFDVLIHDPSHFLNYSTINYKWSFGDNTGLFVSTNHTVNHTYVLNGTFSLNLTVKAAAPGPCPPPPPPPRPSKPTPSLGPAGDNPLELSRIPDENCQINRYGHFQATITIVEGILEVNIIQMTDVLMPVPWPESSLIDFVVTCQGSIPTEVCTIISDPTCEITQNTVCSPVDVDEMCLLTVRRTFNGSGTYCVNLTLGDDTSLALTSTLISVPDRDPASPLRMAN

[14] = biological target: T1, recombinant human soluble gpNMB …; experiment: antigen ELISA, vs hGPN06-1_H1L1
[15] = biological target: T1, recombinant human soluble gpNMB …; experiment: antigen ELISA; remark: listed apart in the source
[16] = biological target: T1, recombinant human soluble gpNMB …; experiment: antigen ELISA, vs hGPN06-1_H1L1; remark: listed apart in the source
[17] = biological target: T1, recombinant human soluble gpNMB …; experiment: antigen ELISA; remark: listed apart in the source
[18] = biological target: T1, recombinant human soluble gpNMB …; experiment: antigen ELISA; remark: listed apart in the source
[19] = biological target: T1, recombinant human soluble gpNMB …; experiment: antigen ELISA, vs hGPN06-1_H1L1; remark: listed apart in the source

Binder	Kd [11] [nM]	koff [11] [s⁻¹]	kon [11] [M⁻¹ s⁻¹]	Kd [12] [nM]	koff [12] [s⁻¹]	kon [12] [M⁻¹ s⁻¹]	Kd [13] [nM]	koff [13] [s⁻¹]	kon [13] [M⁻¹ s⁻¹]	further results
B1										Relative binding activity [1]: 1; Relative binding activity [2]: 1; Relative binding activity [3]: 1; EC50 [4]: 4.39 nM; EC50 [5]: 4.39 nM; EC50 [6]: 4.39 nM; EC50 [7]: 1.84 nM; Kd [8]: 0.00778 nM; koff [8]: 7.49e-07 s⁻¹; kon [8]: 96200 M⁻¹ s⁻¹
B2										EC50 [7]: 1.21 nM; Kd [8]: 0.00346 nM; koff [8]: 4.71e-07 s⁻¹; kon [8]: 141000 M⁻¹ s⁻¹
B3										EC50 [9]: 0.383 nM; Kd [10]: 0.265 nM; koff [10]: 0.000209 s⁻¹; kon [10]: 789000 M⁻¹ s⁻¹
B4	3.08	0.000727	237000	5.31	0.00075	142000	237	0.002	8440	
B5	11.3	0.00138	142000	17.8	0.000862	52900	711	0.00484	6810	
B6	16.2	0.00307	308000	21.9	0.00143	73800	651	0.00432	6640	
B7	6.98	0.00121	176000	6.39	0.000711	111000	352	0.00201	5720	
B8										EC50 [9]: 0.575 nM; Kd [10]: 0.62 nM; koff [10]: 0.000567 s⁻¹; kon [10]: 916000 M⁻¹ s⁻¹; Relative binding activity [14]: 1; EC50 [15]: 1.98 nM; Relative binding activity [16]: 1; EC50 [17]: 1.98 nM; EC50 [18]: 1.98 nM; Relative binding activity [19]: 1
